Assays:
[1] = target: MEDI1912 IgG (human); assay: native MS; nESI-IMS-MS, 1 mg/mL dialysed into 150 mM ammonium acetate, pH 6; dimer estimated with respect to the monomer ion intensity
[2] = target: MEDI1912 IgG (human); assay: AUC; sedimentation velocity, 1 mg/mL, 20 °C, 20 mM sodium succinate, 125 mM arginine, pH 6.0 or 150 mM ammonium acetate, pH 6; 28,000 rpm; SEDFIT
[3] = target: human NGF (construct not stated) (human) (UniProt P01138); assay: not stated; Kd for the antigen; method and data in Supplementary Table 2
[4] = target: MEDI1912 (human); assay: SPR; Biacore 2000, HBS-EP buffer; 100 RU MEDI1912 or MEDI1912_STT IgG amine coupled to a C1 sensor chip; two-fold dilutions of βNGF (10 nM to 78 fM) at 50 µl/min, 300-3600 s dissociation; 1:1 Langmuir fit
[5] = target: MEDI1912_STT (human); assay: as above

For MEDI1912 IgG (antibody), the dimer as percent of the monomer ion intensity [1] was 11.4%, the stoichiometry N [1] was under 4 and the percent dimer [2] was over 75%. For the same substance, the stoichiometry N [2] was 2 and the Kd [3] was 1.6 to 9.8 pM.
In the case of “recombinant βNGF (R&D Systems) (from UniProt P01138 122-241) (ligand)”, the koff [4] is reported as 3.3e-05 to 0.0002 s⁻¹, the kon [4] is reported as 2.1e+07 M⁻¹ s⁻¹ and the koff [5] is reported as 3.2e-05 to 0.00015 s⁻¹. For the same substance, the kon [5] was 1.8e+07 M⁻¹ s⁻¹.

From PMC5171805
